Laboratory results from patent US11091546B2, “Optimized PNE-based chimeric receptor T cell switches and uses thereof” (The Scripps Research Institute, priority 2015, dated 2021).
Several values for one entry are separate records, joined by “and”; a condition that tells them apart may be missing. Equal values may be shown once.

Experiments:
[1] = tested on: Nalm-6^Luc/GFP cells; assay: Nalm-6 Luc/GFP leukemia xenograft; type: in vivo; conditions: IgG format
Description: NSG mice were inoculated with CD19^+ Nalm-6^GFP/Luc cells. Six days later, 40×10^6 sCAR-T cells were delivered IV and switch dosing commenced every other day at 0.5 mg/kg for 10 days. Tumor burden was followed by luminescence after injection of luciferin and imaged on an in vivo imaging system (IVIS; PerkinElmer, Waltham, Mass., USA).
Asterisks indicate significance from LCNT Fab group. Data are represented as means±SEM, and statistical significance was calculated using the 2-way ANOVA with Bonferroni's post-test (B & E; shown for final time-point only) or by one-tailed student's t-test (C & F) where *=p<0.05, **=p<0.01 and ***=p<0.001.
NSG mice were inoculated with Nalm-6^GFP/Luc as described in FIG. 28. […] A fourth group consisted of two cohorts (n=3) of mice injected I.V. with sCAR-T cells without (−) LCNT Fab switch. LCNT Fab dosing in the indicated group was carried out daily at 0.5 mg/kg after the initial T cell infusion. Luminescence was measured at 6 h and subsequently every 24 h as indicated. Cohorts were sacrificed for analysis immediately following IVIS imaging. […] Gray lines indicate tumor burden in PBS and sCAR-T cell—LCNT Fab controls. […] Data are represented as means±SEM, and statistical significance was calculated using the one-tailed student's t-test (C & D) where *=p<0.05, **=p<0.01 and ***=p<0.001.
NSG mice were inoculated with Nalm6^GFP/Luc and six days later engrafted with short-dimeric sCAR-T cells as described in FIG. 29. […] Dosing was carried out for 15 d starting at day 6 (corresponding with sCAR-T cell infusion) as indicated by gray shading. Control groups CART-19 and PBS received no switch. The NS group received sCAR-T cells but no switch. Open circles denote the death of individual mice without evidence of tumor burden and may reflect GVHD. Triangles in PBS, NS and q.a.d. group indicate death due to increasing tumor burden. […] (19) indicates CART-19. […] (19) indicates CART-19. […] Triangles indicate the death of individual mice with significant tumor burden. The single mouse death in the 0.05 mg/kg group occurred while tumor burden was decreasing. […] Statistical significance was calculated using the one-tailed student's t-test (B, C & E) where *=p<0.05, **=p<0.01 and ***=p<0.001.
The different sCAR designs were tested in a xenograft model harboring luciferized NALM-6 (CD19+, CD80−, CD86−) cells. 1 mg/kg monovalent switch “A” was administered along with sCAR cells. […] Optimized hinge improved response. Short hinge CARs have faster clearance. Short, dimeric hinge CARs have improved persistence. Tumor burden was visualized with IVIS imaging. Experiments are repeated with a humanized scFv and bivalent switches.
Activity of the switchable CAR-T cell platform in vivo was evaluated via tumor regression in a Nalm-6^Luc/GFP leukemia xenograft model in immunodeficient NOD scid gamma (NSG) mice. These mice without treatment succumb to disease within 21 days. The impact of CAR hinge design on in vivo efficacy was determined using mice inoculated with Nalm-6^Luc/GFP, followed by I.V. injection of long, short, or short-dimeric sCAR-T cells 6 days later. The LCNT Fab was dosed I.V. (0.5 mg/kg) every other day for 10 days and tumor regression was followed by in vivo imaging (IVIS) of the luciferase signal from Nalm-6^Luc/GFP cells (FIG. 29A).
The effect of switch grafting position on the control of tumor burden was determined. As with the previous model, short-dimeric CAR-T cells were injected 6 days after tumor inoculation and mice were treated every other day (starting at day 6) with 0.5 mg/kg LCNT, HCNT, NTBV, LCC1, or HCCT Fab switches (FIG. 29D).
To determine the proliferation and localization of sCAR-T cell cytotoxicity during this time interval, mice were sorted into 5 cohorts per treatment regimen and analyzed at 8, 24, 48, 72, and 96 h after treatment with short-dimeric sCAR-T cells+LCNT Fab switch or with conventional CART-19 and no switch. […]

[2] = tested on: CD33+ MOLM14 cells; assay: Cytotoxicity assay, sCAR-T cells + anti-CD33 (hP67.6) switches; type: cell-based; set-up: unit not given here; conditions: duplicates
From the text: (§1) FIG. 38A illustrates multiple fusion/grafting locations: A=LCNT1 (light chain N terminus version 1), B=HCNT3 (heavy chain N terminus version 3), C=heavy chain C terminus, and D=light chain C terminus). […] Data shown are an average of duplicate samples, and error bars represent SD. Only the NT switches plus the BvCT and By CH1CL1 as references are depicted.
(§2) Monovalent and bivalent combinations of these switches were expressed and tested in cytotoxicity assays at a dose titration within the range of 0.4 nM to 0.0001 nM. […] Data shown are an average of duplicate samples, and error bars represent SD. Only the NT switches plus the BvCT and By CH1CL1 as references are depicted. cytokine secretion was measured.

[3] = tested on: MOLM14 cell line; assay: Cytokines in cytotoxicity assay supernatant (CBA Human Th1/Th2 II Kit); type: cell-based; set-up: unit not given here; conditions: duplicates
From the text: as §1, §2

[4] = tested on: CD123+ MOLM14 cells; assay: Flow cytometry based cytotoxicity assay, sCAR-T cells + anti-CD123 Fab switches; type: cell-based; conditions: duplicates
Description: as §1
The flow cytometry based cytotoxicity assay were performed in RPMI-1640 media supplemented with 5% heat inactivated FBS, 1% Pen/Strep, 1% glutamine, and 1% Sodium pyruvate. Target cells (2×10^4 cells) were pre-labeled with CellVue Claret Far Red Fluorescent Cell linker (Sigma-Aldrich) and co-cultured with 1×10^5 sCAR-T cells. Variable concentration of switch was added to assess in vitro activity. This assay was conducted in a volume of 100 ul in 96-well U bottom plate for 24 hours, after which the cells were stained with 7-AAD viability dye (1:100; BD Biosciences) in FACs staining buffer (PBS with 2 mM EDTA and 1% FCS) and acquired on BD Accuri C6 flow cytometer. The viability was calculated as following formula: […]=[(no switch viable target cells-experimental viable target cells)/no switch viable target cells]*100
Activity was confirmed by flow cytometry based cytotoxicity assay (FIG. 38J & FIG. 38K). FIG. 38J and Table 31. […] FIG. 38K and Table 32.

## anti-CD19 IgG LCNT: FMC63 anti-CD19 IgG, peptide on N-terminus of light chain (SEQ ID 36 & 28)
[1]; 0.5 mg/kg every 5 days for 15 days (3 doses)
  tumor burden (IVIS): unable to significantly control tumor burden
[1]; 1 mg/kg every day for 10 d
  tumor growth: unable to control tumor growth

## hP67.6 LCNT: anti-CD33 hP67.6 Fab, GCN4 on light chain N-terminus, GGGGS linker (SEQ ID 217 & 232)
[2]; switch 0.1 pM
  cytotoxicity (FIG. 38G): 0
[2]; switch 0.64 pM
  cytotoxicity (FIG. 38G): 5.9 and 4.6
[2]; switch 3.2 pM
  cytotoxicity (FIG. 38G): 36.9 and 35.9
[2]; switch 16 pM
  cytotoxicity (FIG. 38G): 58.7 and 59.2
[2]; switch 80 pM
  cytotoxicity (FIG. 38G): 66 and 66.5
[2]; switch 400 pM
  cytotoxicity (FIG. 38G): 59.5 and 60.9
[3]
  IFNg in supernatant (FIG. 38H): 448.47 and 374.76
  Il-2 in supernatant (FIG. 38H): 328.62 and 234
  TNFa in supernatant (FIG. 38H): 53.4 and 44.84

## hP67.6 NTBV: anti-CD33 hP67.6 Fab, N-terminal bivalent (SEQ ID 217 & 220)
[2]; switch 0.1 pM
  cytotoxicity (FIG. 38G): 0
[2]; switch 0.64 pM
  cytotoxicity (FIG. 38G): 0.9 and 0.8
[2]; switch 3.2 pM
  cytotoxicity (FIG. 38G): 23.6 and 28.4
[2]; switch 16 pM
  cytotoxicity (FIG. 38G): 55.4 and 57.1
[2]; switch 80 pM
  cytotoxicity (FIG. 38G): 69.7 and 69.2
[2]; switch 400 pM
  cytotoxicity (FIG. 38G): 69.3 and 69.5
[3]
  IFNg in supernatant (FIG. 38H): 957.81 and 958.26
  Il-2 in supernatant (FIG. 38H): 936.57 and 898.28
  TNFa in supernatant (FIG. 38H): 98.48 and 97.95

B1: 26292 NTBv: anti-CD123 clone 26292 Fab, N-terminal bivalent (protein)
light: NYHLENEVARLKKLGGGGSDVQITQSPSYLAASPGETITINCRASKSISKDLAWYQEKPGKTNKLLIYSGSTLQSGIPSRFSGSGSGTDFTLTISSLEPEDFAMYYCQQHNKYPYTFGGGTKLEIRTVAAPSVFIFPPSDEQLKSGTASVVCLLNNFYPREAKVQWKVDNALQSGNSQESVTEQDSKDSTYSLSSTLTLSKADYEKHKVYACEVTHQGLSSPVTKSFNRGEC
heavy: NYHLENEVARLKKLLVGEAAAKEAAAKAQVQLQQPGAELVRPGASVKLSCKASGYTFTSYWMNWVKQRPDQGLEWIGRIDPYDSETHYNQKFKDKAILTVDKSSSTAYMQLSSLTSEDSAVYYCARGNWDDYWGQGTTLTVSSARTKGPSVFPLAPSSKSTSGGTAALGCLVKDYFPEPVTVSWNSGALTSGVHTFPAVLQSSGLYSLSSVVTVPSSSLGTQTYICNVNHKPSNTKVDKKVEPKSC
[4]; FIG. 38J, clone 26292, switch 0.01 pM
  Percent of cytotoxicity in target cells: 0%
[4]; FIG. 38J, clone 26292, switch 0.128 pM
  Percent of cytotoxicity in target cells: 2% and 3.4%
[4]; FIG. 38J, clone 26292, switch 0.64 pM
  Percent of cytotoxicity in target cells: 7.4% and 6.4%
[4]; FIG. 38J, clone 26292, switch 3.2 pM
  Percent of cytotoxicity in target cells: 9.8% and 4.1%
[4]; FIG. 38J, clone 26292, switch 16 pM
  Percent of cytotoxicity in target cells: 16.5% and 19.3%
[4]; FIG. 38J, clone 26292, switch 80 pM
  Percent of cytotoxicity in target cells: 31.4% and 33.2%
[4]; FIG. 38J, clone 26292, switch 400 pM
  Percent of cytotoxicity in target cells: 57.5% and 55.5%
[4]; FIG. 38J, clone 26292, switch 2000 pM
  Percent of cytotoxicity in target cells: 64.2% and 62.1%
[4]; FIG. 38J, clone 26292, switch 10000 pM
  Percent of cytotoxicity in target cells: 55.3% and 57.4%

B2: 32716 NTBv: anti-CD123 clone 32716 Fab, N-terminal bivalent (protein)
light: NYHLENEVARLKKLGGGGSDIVLTQSPASLAVSLGQRATISCRASESVDNYGNTFMHWYQQKPGQPPKLLIYRASNLESGIPARFSGSGSRTDFTLTINPVEADDVATYYCQQSNEDPPTFGAGTKLELRTVAAPSVFIFPPSDEQLKSGTASVVCLLNNFYPREAKVQWKVDNALQSGNSQESVTEQDSKDSTYSLSSTLTLSKADYEKHKVYACEVTHQGLSSPVTKSFNRGEC
heavy: NYHLENEVARLKKLLVGEAAAKEAAAKAQIQLVQSGPELKKPGETVKISCKASGYIFTNYGMNWVKQAPGKSFKWMGWINTYTGESTYSADFKGRFAFSLETSASTAYLHINDLKNEDTATYFCARSGGYDPMDYWGQGTSVTVSSARTKGPSVFPLAPSSKSTSGGTAALGCLVKDYFPEPVTVSWNSGALTSGVHTFPAVLQSSGLYSLSSVVTVPSSSLGTQTYICNVNHKPSNTKVDKKVEPKSC
[4]; FIG. 38K, clone 32716, switch 0.01 pM
  Percent of cytotoxicity in target cells: 0%
[4]; FIG. 38K, clone 32716, switch 0.128 pM
  Percent of cytotoxicity in target cells: 2.2% and 3.1%
[4]; FIG. 38K, clone 32716, switch 0.64 pM
  Percent of cytotoxicity in target cells: 1.6% and −6.4%
[4]; FIG. 38K, clone 32716, switch 3.2 pM
  Percent of cytotoxicity in target cells: 6.4% and 0.2%
[4]; FIG. 38K, clone 32716, switch 16 pM
  Percent of cytotoxicity in target cells: 13.7% and 12.6%
[4]; FIG. 38K, clone 32716, switch 80 pM
  Percent of cytotoxicity in target cells: 27% and 28.5%
[4]; FIG. 38K, clone 32716, switch 400 pM
  Percent of cytotoxicity in target cells: 50.9% and 44.5%
[4]; FIG. 38K, clone 32716, switch 2000 pM
  Percent of cytotoxicity in target cells: 60.9% and 55.7%
[4]; FIG. 38K, clone 32716, switch 10000 pM
  Percent of cytotoxicity in target cells: 58.3% and 51%
